Laboratory results: patent US20150166663A1

T1: mouse β6 on transfected HEK-293 cells (mouse) (UniProt Q9Z0T9)
T1 sequence (looked up): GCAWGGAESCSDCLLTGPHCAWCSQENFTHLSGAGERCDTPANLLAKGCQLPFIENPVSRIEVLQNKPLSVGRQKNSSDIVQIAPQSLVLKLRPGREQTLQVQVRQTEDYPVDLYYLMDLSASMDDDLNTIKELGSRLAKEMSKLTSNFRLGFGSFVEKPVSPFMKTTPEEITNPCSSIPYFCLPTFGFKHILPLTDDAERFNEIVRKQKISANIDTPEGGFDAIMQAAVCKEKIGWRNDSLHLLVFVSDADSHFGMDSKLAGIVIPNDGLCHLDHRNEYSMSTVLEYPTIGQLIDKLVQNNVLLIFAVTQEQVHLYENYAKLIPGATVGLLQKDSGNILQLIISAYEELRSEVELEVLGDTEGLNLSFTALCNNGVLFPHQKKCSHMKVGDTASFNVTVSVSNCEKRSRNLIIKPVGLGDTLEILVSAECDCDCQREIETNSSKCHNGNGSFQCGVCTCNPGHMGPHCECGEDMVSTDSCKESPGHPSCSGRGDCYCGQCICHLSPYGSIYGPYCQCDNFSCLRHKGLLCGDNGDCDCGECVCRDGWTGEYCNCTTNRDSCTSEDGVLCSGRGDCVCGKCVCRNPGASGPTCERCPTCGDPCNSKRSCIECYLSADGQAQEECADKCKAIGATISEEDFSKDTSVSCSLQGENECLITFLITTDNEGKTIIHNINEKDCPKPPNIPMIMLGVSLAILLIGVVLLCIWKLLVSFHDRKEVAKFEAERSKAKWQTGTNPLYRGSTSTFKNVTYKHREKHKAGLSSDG


Tests used:
[1] = target: human αV on parental A375M cells (αVβ3 and αVβ5) (human) (UniProt P06756); assay: FACS, supernatant, parental A375M cells (αVβ3 and αVβ5, no αVβ6)
[2] = target: human αV on parental A375M cells (αVβ3 and αVβ5) (human) (UniProt P06756); assay: cell-based or functional assay
[3] = target: mouse αV on transfected HEK-293 cells (mouse) (UniProt P43406); assay: FACS, purified mAb, transiently transfected HEK-293 cells (parental cells 74)
[4] = target: T1, mouse β6 on transfected HEK-293 cells (mouse); assay: as above
[5] = target: cynomolgus β6 on transfected HEK-293 cells (cynomolgus); assay: as above

Chain of mouse αV on transfected HEK-293 cells (mouse) (P43406 31-1044): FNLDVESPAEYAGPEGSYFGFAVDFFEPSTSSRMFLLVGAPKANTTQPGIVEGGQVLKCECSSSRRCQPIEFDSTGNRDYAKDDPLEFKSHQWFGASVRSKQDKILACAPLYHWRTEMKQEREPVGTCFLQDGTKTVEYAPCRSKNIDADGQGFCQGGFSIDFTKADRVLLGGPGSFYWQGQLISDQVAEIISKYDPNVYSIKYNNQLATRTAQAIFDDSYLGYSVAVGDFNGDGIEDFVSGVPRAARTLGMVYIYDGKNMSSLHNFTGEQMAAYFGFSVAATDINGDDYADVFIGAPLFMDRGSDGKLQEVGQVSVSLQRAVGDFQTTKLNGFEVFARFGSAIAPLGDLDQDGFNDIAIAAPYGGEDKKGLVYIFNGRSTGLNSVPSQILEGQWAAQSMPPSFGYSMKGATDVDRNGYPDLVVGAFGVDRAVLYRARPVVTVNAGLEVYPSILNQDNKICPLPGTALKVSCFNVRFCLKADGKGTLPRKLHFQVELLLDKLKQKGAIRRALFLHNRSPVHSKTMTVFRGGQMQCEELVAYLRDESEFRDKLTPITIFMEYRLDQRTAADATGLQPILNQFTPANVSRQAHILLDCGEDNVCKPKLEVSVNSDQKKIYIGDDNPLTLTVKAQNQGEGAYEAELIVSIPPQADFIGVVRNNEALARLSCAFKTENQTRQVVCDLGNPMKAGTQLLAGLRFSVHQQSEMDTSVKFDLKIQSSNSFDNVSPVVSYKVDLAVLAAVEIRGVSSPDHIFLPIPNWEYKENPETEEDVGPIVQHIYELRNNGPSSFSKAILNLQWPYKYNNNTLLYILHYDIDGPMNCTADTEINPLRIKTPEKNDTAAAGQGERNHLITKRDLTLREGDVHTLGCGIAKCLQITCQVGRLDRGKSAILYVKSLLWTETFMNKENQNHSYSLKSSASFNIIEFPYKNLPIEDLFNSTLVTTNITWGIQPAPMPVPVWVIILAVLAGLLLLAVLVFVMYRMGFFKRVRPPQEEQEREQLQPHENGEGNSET

Row | Binder | A375M % Shifted Cells [1] [%] | A375M GeoMean [1] | Percent Inhibition, adhesion of A375M cells to osteopontin peptide, 5 µg/ml [2] [%] | percent of cells shifted [3] [%] | percent of cells shifted [4] [%] | percent of cells shifted [5] [%]
1 | sc 264 (antibody, V domains shown) VH: QVQLQESGPGLVKPSQTLSLTCTVSGGSISSGGYYWSWIRQHPGKGLEWIGYIYYSGRTYNNPSLKSRVTISVDTSKNQFSLKLSSVTAADTAVYYCARVATGRGDYHFYAMDVWGQGTTVTVSS VL: SYELTQPSSVSVSPGQTARITCSGDVLAKKSARWFHQKPGQAPVLVIYKDSERPSGIPERFSGSSSGTTVTLTISGAQVEDEAAYYCYSAADNNLVFGGGTKLTVL | 46 | 2.35 | 3 | 71 | 68 | 75
2 | sc 97 (antibody, V domains shown) VH: EVQLVQSGAEVKKPGESLKISCKGSGYSFTSYWIGWVRQMPGKGLEWMGIIYPGDSDTRYSPSFQGQVILSADKSISTAYLQWSSLKASDTAMYYCARHDESSGYYYVFDIWGQGTMVTVSS VL: SYELTQPPSVSVSPGQTARITCSGDALPKKYAYWYQQKSGQAPVLVIYEDIKRPSGIPERFSGSSSGTMATLTISGAQVEDEADYYCYSTDSSGNHWVFFGGGTKLTVL | 24 | 1.84 |  |  |  | 
3 | sc 161 (antibody, V domains shown) VH: EVQLVQSGAEVKKPGESLKISCKGSGYSFTSYWIGWVRQMPGKGLEWMGIIYPGDSDTRYSPSFQGQVTISADKSISTAYLQWSSLKASDTAMYYCARHGIAAAGFYYYYMDVWGQGTTVTVSS VL: EIVLTQSPDTLSLSPGERASLSCRASQNVNRNYLVWYQQKPGQAPRLLIYGTSNRATGIPDRFSGSGSGTDFTLTISRLEPEDFAVYYCQQCGSLPFTFGPGTKVDIKR | 11 | 16.7 |  |  |  | 
4 | sc 133 (antibody, V domains shown) VH: QVQLVQSGAEVKKPGASVKVSCKASGYTFTGYYMHWVRQAPGQGLEWMGWINPKSGDTNYAQKFQGRVTLTRDTSTSTAYMELSRLRSDDTAVYYCARRLDVWGQGTTVTVSS VL: QSVLTQPPSVSAAPGQKVTISCSGSSSNIGNNYVSWYQQLPGTAPKLLIYDNNKRPSGIPDRFSGSKSGTSATLGITGLQTGDEADYYCGTWNSSLSAGYVFGTGTKVTV | 24 | 1.79 | 3 |  |  | 

Next, values leading:

Row | A375M % Shifted Cells [1] [%] | A375M GeoMean [1] | Percent Inhibition, adhesion of A375M cells to osteopontin peptide, 5 µg/ml [2] [%] | percent of cells shifted [3] [%] | percent of cells shifted [4] [%] | percent of cells shifted [5] [%] | Binder
5 | 23 | 1.86 |  |  |  |  | sc 277 (antibody, V domains shown) VH: EVQLVQSGAEVKKPGESLKISCKGSGYSFPSYWIGWVRQMPGKGLEWMGIIYPGDSDTRYSPSFQGQVTISADKSISTAYLQWSSLKASDTAMYYCARHPMEDGMDVWGQGTTVTVSS VL: SYELTQPPSVSVSPGQTARITCSGDALPKKYAFWYQQKSGQAPVLVIYDDNKRPSGIPERFSGSSSGTMATLTITGAQVEDEADYYCYSTDSSGHHVFGGGTKLTVL
6 | 15 | 23.2 |  |  |  |  | sc 320 (antibody, V domains shown) VH: EVQLVESGGGLVKPGGSLRLSCAASGYTFTNYIMHWVRQAPGKGLEWVSSISISSSYIYYADSVKGRFTISRDNAKNSLYLQMNSLRAEDTAVYYCARDPVPLERRDYYYGMDVWGQGTTVTVSS VL: QSVLTQPPSMSAAPGQKVTISCSGSSSNIGNNYVSWYQQLPGTAPKLLIYDNNKRPSGIPDRFSGSKSGTSATLGITGLQTGDEADYYCGTWDSSLSAGVFGGGTKLTVL
